Our source for the stoichiometry N values is PMC2747018.

The target in the assay is U1-A protein of the native human U1 snRNP (human (endogenous in HeLa)) (UniProt P09012). The assay can be described thus: native MS; nano ESI-MS of the intact U1 snRNP purified from HeLa cells, 200 mM ammonium acetate, Q-ToF2, collision cell 100 V; the complex holds U1 snRNA.
UniProt P09012, sequence (P09012 whole entry): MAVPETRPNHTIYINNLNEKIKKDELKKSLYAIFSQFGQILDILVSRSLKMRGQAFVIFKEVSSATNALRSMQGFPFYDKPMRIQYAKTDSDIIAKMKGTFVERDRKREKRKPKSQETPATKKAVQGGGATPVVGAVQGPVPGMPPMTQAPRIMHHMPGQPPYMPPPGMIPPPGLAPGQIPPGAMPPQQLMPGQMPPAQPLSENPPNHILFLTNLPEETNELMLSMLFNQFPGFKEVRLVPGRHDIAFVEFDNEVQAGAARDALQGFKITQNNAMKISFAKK

Usually stoichiometry N stands for the number of molecules, sites or subunits per partner or assembly. Regarding “Sm-D1 (from UniProt P62314 1-119) (natural protein; other documents disagree on this pair)”, the stoichiometry N worked out at 1. “Sm-F (from UniProt P62306 1-86) (natural protein; other documents disagree on this pair)” returned a stoichiometry N of 1.
